In paper PMC3747075:

Target: human DNM1L GTPase-GED (GG) fusion protein (human) (UniProt O00429)
Experiment: SEC; 60 µM protein incubated 30 min at 37°C with 2 mM GDP or GTP, 20 mM NaF and 2 mM AlCl3 (transition state mimic GDP/AlF4-); 20 mM Tris/HCl pH 8.0, 150 mM NaCl, 2 mM EGTA, 4 mM MgCl2, 1 mM DTT; Superdex S 75 HR 10/300; dimer at 9.5 ml, monomer at 11 ml

stoichiometry N: 2
Substance: human DNM1L GTPase-GED (GG) fusion protein (from UniProt O00429 1-325) (domain or fragment)
